Reference: PMC9284671 (Structure (London, England : 1993), 2022)

Assays:
Assay in all cases: ELISA
[1] = biological target: WIV1 S2P (pre-fusion-stabilized soluble spike) (Bat SARS-like coronavirus WIV1, UniProt U5WI05, stabilised)
[2] = biological target: SHC014 S2P (pre-fusion-stabilized soluble spike) (Bat SARS-like coronavirus RsSHC014, UniProt U5WLK5, stabilised)
[3] = biological target: SARS-CoV S2P (pre-fusion-stabilized soluble spike) (SARS-CoV Urbani, UniProt P59594, stabilised)
[4] = biological target: MERS-CoV S2P (pre-fusion-stabilized soluble spike) (MERS-CoV EMC/2012 (GenBank AFS88936), UniProt K0BRG7, stabilised)
[5] = biological target: RaTG13 S2P (pre-fusion-stabilized soluble spike) (Bat coronavirus RaTG13 (GenBank …, UniProt A0ABF7PLN6, stabilised))

Measured: binding result

B1: WS6 (monoclonal antibody, IgG) (antibody, V domains shown)
VH: EVQFQQSGTVLARPGASVKMSCKASGYTFTNYWIHWVKQRPGQGLEYIGGTYPGNGDTTYNQKFKGKAKVTAVTPTSTAYMDLSSLTNEDSAVYYCTRTGSYFDYWGQGTTLTVSS
VL: QIVLTQSPAIMSASPGEKVTISCSATSSVSYIYWYQQRPGSSPKPWIYRTSNLASGVPVRFSGSGSGTSYSLTISNMEAEDAATYYCQQYQSYPPTFGAGTKLELK
binds: all assays above
